Reference: the supplement of paper PMC9170038

Test system: MS2 coat protein
Assay: apparent KD of MS2 coat protein; designed switch direction (-1 OFF switch, 1 ON switch): -1; higher = weaker reporter binding
How it was run: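 Designed RNA switches were transcribed on Illumina chips by stalled E. coli RNA polymerase and titrated with SNAP-549-labelled MS2 coat protein from 0.7 or 1.5 nM, doubling to 3 µM. Step length ran from 0.8–1.5 h at the lowest concentration to 10–20 min at the highest. The apparent KD is the median over clusters for each design, from curve-fitted normalised cluster fluorescence.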

[1] = input ligand: microRNA oligo, concentration not stated
[2] = Eterna round: R95, input ligand: FMN 200 uM
[3] = Eterna round: R95, input ligand: microRNA oligo, concentration not stated
[4] = Eterna round: R95, input ligand: none

Row | Sequence | apparent KD of MS2 coat protein (input ligand: FMN 200 uM) | apparent KD of MS2 coat protein (input ligand: none) | apparent KD of MS2 coat protein [1] | apparent KD of MS2 coat protein [2] | apparent KD of MS2 coat protein [3] | apparent KD of MS2 coat protein [4]
1 | UCAGCUUGUGUCAGGAUAUCCAGUCCGACGGGAGAGGAGAAGGGACAUGAGGAUCACCCAUGUAGGCGCCCUAC [Soerrecege] (Eterna round: R97, puzzle: Brourd's mod of Exclusion 4) | 63.8 nM | 461 nM | – | – | – | –
2 | UUUUAGUCAGGAUAUACAUGAGGAUCACCCAUGUAAAAUUUUAAUUUAAUUUGAAGGUGUAGAAGGGACAAUUU [Ex3 #39] (Eterna round: R97, puzzle: Exclusion 3) | 22.7 nM | 35.8 nM | – | – | – | –
3 | CAUCACUGCUAGGAUAUCGAGUCGGAGAAUACUUGAGAAGGAGCUACAUGAGGAUCACCCAUGUCCUCCGCGAU [Eternabot (L2) Solution 72] (Eterna round: R97, puzzle: Exclusion 6) | 47.3 nM | 18.8 nM | – | – | – | –
4 | UCAAGAAUAGGAUAUACAACAUGCCCGCUUCUUUGCAUCGCACAUGAGGAUCACCCAUGUAGAAGGGUUCUCUA [Exclusion-2-#16] (Eterna round: R97, puzzle: Exclusion 2) | 103 nM | 151 nM | – | – | – | –
5 | CGGCAUGUCUGAGGAUAUCUGCACGUUUAGUGCAGAGAAGGCAGAACAUGAGGAUCACCCAUGUAGAUCAUUAACCGAUUAAUU [ENG1/7-A2] (Eterna round: R96, puzzle: Exclusion NG 1) | – | – | 182 nM | – | – | –
6 | UAGGAGUCAGGAUAUGCGAGAGAUUGAAGUAUGGGAAGUGAGCAGAAGGGACAUGAGGAUCACCCAUGUGAGAA [JR_Exclu4_Sub094] (puzzle: Exclusion 4) | – | – | – | 52.1 nM | 46.8 nM | 45 nM
7 | GGUAAGUGUGACUUGGGUGACAUGAGGAUCACCCAUGUCACAAGCUUGUUGCUCGCCUUGUAAUUAACCCAUGUCAC [LRO Sensor-off var1-28 mod of Stov1-13-A1 by Brourd] (Eterna round: R97, puzzle: Sensor, turn-off variant 1) | 17.3 nM | 18.6 nM | – | – | – | –
8 | AUAAUGUGAGGAUAUCACGGCCCGGAGAAUCCGGUAAACGAUGAGAAGGCACAUGAGGAUCACCCAUGUUCCUG [EX4 A.4] (Eterna round: R97, puzzle: Exclusion 4) | 44.3 nM | 18.3 nM | – | – | – | –
9 | CAUGCACAUGAGGAUCACCCAUGUCAGGAUAUCUAUCAUAGCAUCGAAAGAUGCGGGUAGAGAAGGGACAACCC [ChP Ext 10-04-2015 #10] (puzzle: Exclusion 1) | – | – | – | – | 15.5 nM | –
10 | GGUGGACAUGAGGAUCACCCAUGUGAGGAUAUCGGCUGGCUAGCGGCUGACGGCUGCUCGAGAAGGCGCAUUGU [Exclusion 1 V85] (puzzle: Exclusion 1) | – | – | – | – | 50.5 nM | –
11 | GGCCCGGGAGGAUAUACAUGAGGAUCACCCAUGUUGAGCUUGAGGAUCUUCGAGUUCGGUAGAAGGCCCGGGCC [-35.1, -32.9 kcal, 22% A, 1, 0] (Eterna round: R97, puzzle: Exclusion 3) | 201 nM | 27.2 nM | – | – | – | –
12 | CAUGAUCUUCGGAUCAUGUACAUGAGGAUCACCCAUGUGACGAGUAUAUCUUCAAACAAGCUUUUUGCUCGUCUUAU [Sensor v3 - Turn-off variant 1 - 23] (puzzle: Sensor v3, turn-off variant 1) | – | – | – | 41.6 nM | 49.8 nM | 41.6 nM
13 | ACAUGAGGAUCACCCAUGUGAAAAGAAUGGCUGACACAGAGUUAGGAUAUGCGUGCAUAUCUAACGCAGAAGGGACAUGACUGG [Deportation 82 - Jieux - Exclusion NG 3] (Eterna round: R96, puzzle: Exclusion NG 3) | 33.7 nM | 30.2 nM | 33.9 nM | – | – | –
14 | UAAACCAGAGGAUAUGCGAAUAAAUAAAACUUUUUUUUUUAACAUGAGGAUCACCCAUGUAGAAGGCUGCAAUU [Ex2 #32] (Eterna round: R97, puzzle: Exclusion 2) | 30.4 nM | 30 nM | – | – | – | –
15 | GACUAGGCAGGAUAUACAUGAGGAUCACCCAUGUGUCUGCGUUGGGCACGUGAACACCGUAGAAGGGCCUUGAC [ChP 13.04.2015 #14] (puzzle: Exclusion 3) | – | – | – | – | 14.4 nM | –
16 | GUACCAAUUGUAGGAUAUGGAUCCGAUUAGGAUCCAGAAGGACAUGAGGAUCACCCAUGUACAUGAGGAUCACCCAUUAGGUAC [Fiskers ExNg1 - 12] (Eterna round: R96, puzzle: Exclusion NG 1) | 53.2 nM | 46.1 nM | 30.9 nM | – | – | –
17 | CAGUACUGAGGAUAUACAUGAGGAUCACCCAUGUGUCCCGGCUAGGAAACUAGCAAAAGUAGAAGGCAGUACUG [Fiskers Ex 3 828 mod 2] (puzzle: Exclusion 3) | – | – | – | – | 25.1 nM | –
18 | AAGAAGAUCGGAGGAUAUGGAGCUGAAACGGCGCUAGAAGGCCGUCUAGUGUAACAUGAGGAUCACCCAUGUAGGGACCUCUAA [EX ng 1 4.2] (Eterna round: R96, puzzle: Exclusion NG 1) | 944 nM | 558 nM | 633 nM | – | – | –
19 | UGUGUGUUUGUGAGGAUAUUGUGUGUGAAAGCGCGCGAGAAGGCACAUGAGGAUCACCCAUGUAAGGGCGCGCG [-26, -24 kcal, A 23%, 6bis-6] (Eterna round: R97, puzzle: Brourd's mod of Exclusion 4) | 20.2 nM | 23 nM | – | – | – | –
20 | GGUACUAACAGCUGACUGUUAGUACUGUAGGUUUGUGUUACAUGAGGAUCACCCAUGUCCUCAUAGGCUCGUCUUGU [JL-sv3-2.24 mat747 mod] (puzzle: Sensor v3, turn-off variant 2) | – | – | – | 281 nM | 91.5 nM | 739 nM
21 | GUAGAGUGAGGAUAUACGAGAUCGAUAGAUCAACGAUCCAAACAUGAGGAUCACCCAUGUAGAAGGCACUCUAC [Mat - Exclusion 2 - Eli Mod - D8] (Eterna round: R97, puzzle: Exclusion 2) | 224 nM | 23.1 nM | – | – | – | –
22 | AGUACUUUCACGAAAGUGAAAGUACAAAUGAGCUUUUGAACAUGAGGAUCACCCAUGUCCUCAUAAGCUCGUCUUAA [Mat - Sensor v2 - var 2 - Mod - D175] (Eterna round: R96, puzzle: Sensor v2, turn-off variant 2) | 28.3 nM | 30.7 nM | 458 nM | – | – | –
23 | UCGCUCCGUGUAGGAUAUCGCCGUUCCACUCGGCGAGAAGGACAUGAGGAUCACCCAUGUAUGUUAUUAUCACGUGUGGCGCGC [Design 53] (Eterna round: R96, puzzle: Exclusion NG 1) | 32 nM | 18.1 nM | 16.5 nM | – | – | –
24 | GUGAGACAUGAGGAUCACCCAUGUCAGGAUAUGAUACUAUGUACUUCGGUACAUAGUAUCAGAAGGGACAGUGA [Ex1-3: 5] (puzzle: Exclusion 1) | – | – | – | – | 42.5 nM | –
25 | UGGUAACAUGAGGAUCACCCAUGUCAGGAUAUCAGUAAGAAUAGAUUAGAUUAGAAUAUGAGAAGGGACUAUAG [Excluse me! 3 - Jieux - Exclusion 1] (puzzle: Exclusion 1) | – | – | – | 38.5 nM | 38.9 nM | 47.8 nM
26 | UCUUAUCUAUAGGAUAUAGGAGCAGAAUUGCGAUUAGAAGGAUGGACAUGAGGAUCACCCAUGUGCAUGGGCUU [EX6 B.6] (Eterna round: R97, puzzle: Exclusion 6) | 17.9 nM | 30.6 nM | – | – | – | –
